The source of these data is PMC11342335 (2024).

The target in this assay is human sortilin (R&D Systems, 3154-ST) (human, UniProt Q99523 78-755). In words: SPR.
Sequence of human sortilin (R&D Systems, 3154-ST) (Q99523 78-755): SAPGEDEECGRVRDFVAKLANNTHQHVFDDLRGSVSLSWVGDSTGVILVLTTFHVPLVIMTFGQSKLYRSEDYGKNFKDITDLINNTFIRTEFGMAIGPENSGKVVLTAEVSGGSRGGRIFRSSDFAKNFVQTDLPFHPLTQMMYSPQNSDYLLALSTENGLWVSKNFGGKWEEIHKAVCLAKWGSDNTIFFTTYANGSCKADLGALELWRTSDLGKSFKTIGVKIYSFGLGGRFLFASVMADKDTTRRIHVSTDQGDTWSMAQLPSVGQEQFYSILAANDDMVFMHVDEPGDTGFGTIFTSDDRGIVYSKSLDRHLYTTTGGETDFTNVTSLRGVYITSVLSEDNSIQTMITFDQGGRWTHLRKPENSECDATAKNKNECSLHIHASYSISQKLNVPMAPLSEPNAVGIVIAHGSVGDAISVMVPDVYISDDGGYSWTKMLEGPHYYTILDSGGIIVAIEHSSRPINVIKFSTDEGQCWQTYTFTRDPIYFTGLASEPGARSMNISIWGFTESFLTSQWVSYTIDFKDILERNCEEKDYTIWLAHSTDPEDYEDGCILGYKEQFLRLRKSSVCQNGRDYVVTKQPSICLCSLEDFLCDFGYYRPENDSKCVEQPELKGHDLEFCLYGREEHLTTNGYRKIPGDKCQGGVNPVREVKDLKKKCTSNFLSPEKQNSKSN

In turn, LRREAPRWDAPLRDPGLRQLL [ABD-PGRNC21* (His6-ABD035-PGRNC21*)] showed a dissociation constant Kd of 26 nM.
